# ± gives the uncertainty stated by the source.
# B1: Ankyrin-3, residues 4094 to 4171; numbered along this chain, Q12955 (parent)
# chain: MAIVADHLGLSWTELARELNFSVDEINQIRVENPNSLISQSFMLLKKWVTRDGKNATTDALTSVLTKINRIDIVTLLE
# Variants of: B1
# Assay: abundance fitness (aPCA) (normalised: wild type 0, dead -1); higher = more abundant; growth selection in yeast, the domain comes from the species named
# Conditions: Homo sapiens
row,Variant,abundance fitness
1,D52Q,-0.359 ± 0.062
2,D52H,-0.577 ± 0.2
3,K54T,-0.121 ± 0.082
4,K54E,-0.132 ± 0.11
5,K54L,-0.051 ± 0.048
6,K46E,-0.013 ± 0.14
7,K46T,-0.061 ± 0.067
8,K46G,-0.337 ± 0.049
9,H7E,0.011 ± 0.074
10,H7M,-0.12 ± 0.085
11,H7G,-0.705 ± 0.062
12,D6C,-0.418 ± 0.14
13,V31E,-0.139 ± 0.098
14,V31D,0.058 ± 0.12
15,V31M,-0.191 ± 0.13
16,L65K,-0.528 ± 0.21
17,L65S,-0.884 ± 0.13
18,L65Y,-0.737 ± 0.23
19,V4N,-0.663 ± 0.22
20,N33Q,0.093 ± 0.067
21,N33S,-0.014 ± 0.055
22,S41Y,-0.67 ± 0.45
23,V23Q,0.16 ± 0.056
24,V23F,-0.142 ± 0.092

row,Variant,abundance fitness
1,L76H,-0.064 ± 0.12
2,L76F,-0.231 ± 0.21
3,S36N,-0.044 ± 0.14
4,S36E,-0.172 ± 0.085
5,S36V,-0.952 ± 0.16
6,G53H,-0.3 ± 0.28
7,E78G,0.077 ± 0.13
8,E14M,-0.185 ± 0.094
9,E14T,-0.198 ± 0.086
10,E14L,-0.306 ± 0.065
11,E14R,-0.289 ± 0.05
12,L15G,-0.93 ± 0.13
13,A2K,-0.095 ± 0.2
14,A2P,-0.193 ± 0.057
15,A2D,0.173 ± 0.074
16,T13A,-0.153 ± 0.064
17,T13E,0.005 ± 0.084
18,T13K,-0.554 ± 0.21
19,T13P,0.101 ± 0.058
20,K47N,-0.033 ± 0.49
21,K47E,-0.235 ± 0.097
22,A60G,-0.233 ± 0.048
23,A60K,-0.083 ± 0.19
24,F21W,-0.978 ± 0.22

row,Variant,abundance fitness
1,F21I,-0.665 ± 0.21
2,F21Q,-0.694 ± 0.2
3,F21P,-0.708 ± 0.12
4,F21A,-0.842 ± 0.14
5,L44Q,-0.784 ± 0.16
6,L44Y,-0.693 ± 0.27
7,L8M,-0.574 ± 0.15
8,L8G,-0.983 ± 0.14
9,L8C,-0.787 ± 0.22
10,A5L,-0.921 ± 0.19
11,A5V,-0.484 ± 0.068
12,A5I,-0.74 ± 0.31
13,N35E,-0.082 ± 0.091
14,N35A,-0.215 ± 0.068
15,N35H,-0.266 ± 0.13
16,N35T,-0.018 ± 0.076
17,N35F,-0.499 ± 0.24
18,M1G,-0.566 ± 0.11
19,M1H,-0.587 ± 0.44
20,Q40S,-0.312 ± 0.06
21,I73H,-0.715 ± 0.24
22,L45R,-0.865 ± 0.095
23,V49F,-0.154 ± 0.11
24,V49W,-0.361 ± 0.092

row,Variant,abundance fitness
1,V49Y,0.021 ± 0.15
2,V49R,0.024 ± 0.057
3,M43L,-0.152 ± 0.054
4,M43D,0.028 ± 0.12
5,A16P,-0.895 ± 0.13
6,I29H,-0.389 ± 0.39
7,I29E,-0.174 ± 0.16
8,T66G,-0.126 ± 0.046
9,T66F,-0.052 ± 0.081
10,T66W,-0.173 ± 0.053
11,T66S,-0.173 ± 0.051
12,N20R,-0.18 ± 0.047
13,N20M,-0.113 ± 0.086
14,N20K,-0.169 ± 0.088
15,N69G,0.073 ± 0.047
16,N69Q,-0.061 ± 0.12
17,N69C,-0.549 ± 0.23
18,N69A,-0.339 ± 0.074
19,N69R,-0.224 ± 0.067
20,N69D,-0.178 ± 0.12
21,I3D,-0.489 ± 0.16
22,S11C,-0.342 ± 0.087
23,S11V,-0.84 ± 0.11
24,S11N,0.009 ± 0.23

row,Variant,abundance fitness
1,S11T,-0.314 ± 0.06
2,D72V,-0.644 ± 0.11
3,D72G,-0.878 ± 0.14
4,L37T,-0.03 ± 0.076
5,E32V,-0.316 ± 0.045
6,E32I,-0.621 ± 0.2
7,N55Q,0.011 ± 0.051
8,N55E,-0.079 ± 0.093
9,N55S,-0.021 ± 0.052
10,N55L,-0.004 ± 0.042
11,N55F,-0.15 ± 0.1
12,N55H,-0.058 ± 0.094
13,R70C,-0.817 ± 0.2
14,K67H,-0.247 ± 0.16
15,K67P,-0.646 ± 0.2
16,I26C,-0.561 ± 0.14
17,I26K,-0.953 ± 0.26
18,I71A,-0.075 ± 0.071
19,I71P,-0.046 ± 0.063
20,F42G,0.113 ± 0.048
21,D24S,-0.199 ± 0.055
22,D24E,0.053 ± 0.11
23,D24N,-0.197 ± 0.2
24,D24K,-0.195 ± 0.087

row,Variant,abundance fitness
1,R17S,-0.08 ± 0.04
2,R17N,0.231 ± 0.2
3,R17W,-0.101 ± 0.1
4,T62P,-0.102 ± 0.089
5,L10G,-0.043 ± 0.052
6,L10A,-0.064 ± 0.068
7,L10H,0.124 ± 0.079
8,P34R,-0.26 ± 0.058
9,P34C,-0.7 ± 0.21
10,G9S,-0.535 ± 0.081
11,G9P,-0.868 ± 0.12
12,S63D,0.054 ± 0.12
13,S63A,-0.014 ± 0.034
14,T57P,-0.896 ± 0.15
15,T57L,-0.798 ± 0.098
16,T57Y,-0.14 ± 0.12
17,Q28M,-0.179 ± 0.13
18,Q28I,-0.479 ± 0.39
19,Q28S,-0.094 ± 0.055
20,V74Y,-0.55 ± 0.35
21,V74S,-0.656 ± 0.12
22,I68P,-0.37 ± 0.12
23,I68S,-0.935 ± 0.21
24,I68W,-0.878 ± 0.28

row,Variant,abundance fitness
1,T50M,0.035 ± 0.086
2,T50G,0.026 ± 0.043
3,T58K,0.016 ± 0.13
4,R51C,-0.744 ± 0.26
5,R51Y,-0.773 ± 0.37
6,R51T,-1.02 ± 0.29
7,W48I,-0.83 ± 0.32
8,S39F,-0.434 ± 0.24
9,L61G,-0.954 ± 0.12
10,R30E,-0.088 ± 0.16
11,R30V,-0.172 ± 0.064
12,R30Q,-0.188 ± 0.097
13,R30L,-0.033 ± 0.076
14,R30F,-0.628 ± 0.18
15,R30G,-0.385 ± 0.067
16,E18Q,-0.388 ± 0.18
17,E18W,-0.825 ± 0.16
18,I38K,0.05 ± 0.13
19,I38T,-0.122 ± 0.071
20,I38Q,-0.133 ± 0.11
21,I38D,-0.286 ± 0.18
22,D59W,-0.201 ± 0.062
23,D59P,-0.058 ± 0.094

# From the Human Domainome abundance scans (Beltran et al. 2025)
